Experimental findings from patent US20250277006A1 are described below.

The target in this assay is adalimumab. Nature of the assay: SPR; ligand on CM5; max response at 800 nM, rounded to 50 Ru.

“ZGE0214 (domain E with A/R/I at positions 33/40/51) (designed binder)”: the max response (Ru) is 4100 Ru.

“ZGE0234 (domain E with A/G/R at positions 33/40/51) (designed binder)” yielded a max response (Ru) of 2950 Ru.
